According to the DeepSol protein solubility set:

Assay: soluble on expression in E. coli; label from the status in PepcDB or PDB records

Row | Sequence | soluble on expression in E. coli
1 | MGSDKIHHHHHHMGQSEVNFYQQEVVELLKQVIEPNLKNDIVSLGMVRNLRIVDDYVYLRLYIGSHQQQLQTEVEAKLSALSWCKKTYIQICTIPGVKITLGISSGKGGVGKSTTAVNIAAALSLQGAKVGLLDADVYGPNVPQMLGLGQADVEVIQTPTGEKFLPLEVQGIKLMSVGLLAEENRPLAWRGPVLHKIITQFINDVEWGELDYLLIDLPPGTGDAQITIIQESPICGVILVTTPQQVAVADVRRNIYMFRQVGVPVLGIVENMSYLICGDCGSRTYIFGSGGGEQLATELQAPLLGQIPIDQRICSGGDSGNPIAISEQTSPASEVFRNIAIAIGLSFP | not soluble
2 | MGSDKIHHHHHHMGRYLERTEHISRFSQAHYFFSIDAPKSVKKEHILESVLNMAGSYVEYLGSGNKMETMEVAYYIGLNEFNASSIKHSIVKARENARGAKDSISSELWQSINTFYHSINLMDRATFNEMGIYEFSKNVLQNSSVIKGNIDNTLLHEEAWSIIHLGQHIERTTQVIRMIVTKINDINRIPKKEYYNMIELFENVNLLKSTEAYDMSKIFYREVPSVSHSLEFLTLNRNFPKSIVYNLRHIEHCLLRITNLSKHETNSLEFYASKLLCTVKYTSIQDIEKEPLAFYNDLLNKVAKLADMLETKYLQY | not soluble
3 | MGSDKIHHHHHHMGSYPDGKRIFVKMNTSPILPGLAREQIAPQLLWSRRLADGRDMCAQEWLTGKILTPYDMNRKQIVNILTRLHRSRPLMTQLSRLGYAMETPVDLLQSWQETAPDALRKNHFISEVMADLRQTIPGFREDHATIVHGDVRHSNWIETDSGLIYLVDWDSVRLTDRMFDVAHMLCHYISEHQWKEWLTYYGYKYNQTVLSKLYWYGQLSYLSQISKYYMNQDLENVNREIHGLRHFRDKYGKRR | not soluble
4 | MGSDKIHHHHHHMGTRLDILMIHSNLPLLNMLWAHITDELERLDKMLNRFDATSEVSKLNSHTQQDSVSVSAELEDILRSCQYYYEKTLHLFDITLNDFSQIQIHGNHHISFSNFSVTLDFGGFAKGYALKKIQEILLRGNIENAFVDFGNSSIMGIGHHPYGDCWKVSLQNPYTQQTLDEFCLTDNTLSTSGNTEQYTGHIINPLTGIYNEQKKVTSILSDNPLDAEILSTVWMIADDQQREQINENFKHIKGTIYTL | not soluble
5 | MGSDKIHHHHHHMGVFLDKSIKEVVDELNGRYFLPDIQREYVWLQNADGKKIEQLFDSILRGYPIGFFLFWKLPKEDIAKSDEQDSDKLNFQLYQFITNYDERKPHNEKIRIEQIKRDDLYIVLDGQQRLTSLYIGLKGTRTLKKKNARYDNPNAYEEKRLYLNLKHQPNMDNPEDNYEFEFHAQKPENDKKHWWFKVGDILESESHVWNYADEHGLKGNELKLLGDLHRAFHTKQLVSFFEETEKNLNKVLNIFIRVNSGGVKLSYSDLLMSILTASFSSDIREKMNELVDALKDKGFSNMG | not soluble
6 | MGSDKIHHHHHHMHAVSHLASKDAQSNASPQVALIAEGGGQRGIFTAGVLDAWLDGGFDPFDLFIGTSAGSQNLSSFLARQKGYAKRLIRGLSRHKRFYRLGRGLVGGNVVDLDWYFEQTRQGMFKLDLNAATASLGHRQLLITTTNASDRKGYFLSPSSKSQWRELLKASSALPFLYKQGVKLTPWLNDNACNSDKACNNGAANHGGSHHSAALSEAIDSDFYLDGGLAAPLPVREAYRRGARKIVVIRTVSEDFQAQSAWVHKLKSWICVSGFCPKTIDYLVQHEQAYQDELDFIANPPEDVEIVQIFAAENLQSKLLGSTDADLRHDYHAGMNAGKQFLTQDPMALTQMNVHFQTQVQTNAHTQTHIQALSQIKPFSALSA | not soluble
7 | MGSDKIHHHHHHMHFNAPSYPKQWFDTKSAGTPVVILTGMGCSYEEWYEVIQSLRPAHRILSFHRHSWKEGDGIHRTGHAIQQLQTLLSGSNVDEPILLIGHSYGGLIAQEFTKLFPERIKGLILVDSTSVDLHELDALDTPVLDAVSSDAAWQALCRDYAIKTKEQLKQLLQPVLTGAQKRLPQAVQDALVDFQTEPDLYAMMDSEVEHWKTDAARIRTGPFPDVPLIVIGRDPELSIQDGINDGLPEDELRQVEETWHRLVLRQATLTKQADFITATGAGHAIHLDRPDLVISAVTKLDVT | not soluble
8 | MGSDKIHHHHHHMHFYTARQPILNRRQRVVAYELLFRDSYKNCFPVDVPDKVATAKLLVNSFLSMDIEDMTDGKPALINFPTSLLKEHLVHILPYKNLVIEVLETVEPNDDNFAILKQLFDSGYHLALDDFIYSPAWDRFLPLFKLIKIDIVATPLDTIAHILPKLKQKKTRLLAEKVETQADFLHAKALGFDYFQGYFFYKPEIVKGNEVELSQPFLMSIYTEVMKPSFSYRKLEAYFTQDMDLSYKLLRFVNSSYFSHVKDIISLKQAMIFLGENQLRKFVCLIVMAQLNPDKPQILIQNTMLRARLCEVIAKVMKLNKLADAAFLTGLFSTLDAILDKPMEKVLHSLPLAPEINNALLHQQGELAECLALAIAYMQGNWEFVSEFVSRNHINAGELTRRCNQVYLWLSEYQRSSSSKA | not soluble
9 | MGSDKIHHHHHHMHHDLVDVLIIEDESELARLHAELVQKHPRLRLAGMAASLAQARQLLHATPPQLVLLDNYLPDGKGVTLMTDPALATSQCSVIFITAASDMETCSQAIRNGAFDYILKPVSWKRLSQSLERFIQFYDQQREWKIVDQQNVDSLYQLQAKNYRVDSGSKGIEEKTLALVQGLFSDREAHCFSVDEVVSAAGLSKTTARRYLEHGVETGFLEVEMLYGKIGHPRRLYRRAKVKS | not soluble
10 | MGSDKIHHHHHHMHNEIVTGNVLPFNIFEKADSKLLAWIRDVSVVREITTSCRLIEEGSTPDGLFVVESGAITVCTKQADGGSLSLASLKVGNLVGEMSWLEERPAVASIDAGPGSRLLQIPREALESINQSEAFICHLLYRLIAEKLALQVQGQNIWVHRIAGTDQEPLRKVLVLFAELEEKDVAWIARSGKFKRLVAGDVLLQEGDNVPGLYLLLAGEARISITENGSWQSVGSSRRGELLGELTMLNPQAAGATANVDTVTGLELLVLDKEELSMTLNADPRLAKRFYKGIARMLSQRSRDQLLSRGFAEASRIAEELIDNEQLGLDQLSAISSAGLRFDWLCRQFQDKEG | not soluble
11 | MGSDKIHHHHHHMHVIKAKDDYTYRHTVGVSILSRLIGTWLKLDEVILKELTLGAVLHDIGKVEIPDAILNKPGALTKDEYRIIQDHTVKGYRIIQESGIYSDTVALMALEHHEREDGTGYPYQKTRNEIHLLSKILAVADVFHAMTSDRIYRKGMALYDVLLQMRQDRFGKLEPRITDFFVRRFMEQCIGSKARLNDGSRVEIVFIPYENPICPIVKQGTNYIDLRMSPLYIQELIPVTVKV | not soluble
12 | MGSDKIHHHHHHMIDFIISIDDCAVELDSRQSWKIRYPLSTILFLVFVCQLAGIETWKEMEDFIEMNEPLFATYVDLSEGCPSHDTLERVISLVNSDRLKELKVQFEQSLTSLDAVHQLISVDGKTIRGNRGKNQKPVHIVTAYDGGHHLSLGQVAVEEKSNEIVAIPQLLRTIDIRKSIVTIDAMGTQTAIVDTIIKGKADYCLAVKGNQETLYDDIALYFSDVNLLEELQENAQYYQTVEKSRGQIEVREYWVSSDIKWLCQNHPKWHKLRGIGMTRNTIDKDGQLSQENRYFIFSFKPDVLTFANCVRGHWQIESMHWLLDVVYHEDHHQTLDKRAAFNLNLIRKMCLYFLKVMVFPKKDLSYRRKQRYISVHLEDYLVQLFGERG | not soluble
13 | MGSDKIHHHHHHMIDVENILEKMKPNQKINYDWVMQQMVKQWQASDIRPKILMHVCCAPCSTYTLEYLSQWADVTIYFANSNIHPKDEYYRREYVTQKFVHDFNKNTGYSVQFLSAPYEPNEFFKIVHGLEEEPEGGDRCKVCYDFRLDKTAEKAVELGFDYFGSALTISPHKNSQTINTIGIDVQKIYDTQYLPSDLKKNKGYQRSVEMCKDYDIYRQCYCGCIFGAKDQGINLLQIKKDAKAFVSDKDGKEEFPNIRFTFNGKSM | not soluble
14 | MGSDKIHHHHHHMIEFDNLTYLHGKPQGTGLLKANPEDFVVVEDLGFEPDGEGEHILVRILKNGCNTRFVADALAKFLKIHAREVSFAGQKDKHAVTEQWLCARVPGKEMPDLSAFQLEGCQVLEYARHKRKLRLGALKGNAFTLVLREVSNRDDVEQRLIDICVKGVPNYFGAQRFGIGGSNLQGAQRWAQTNTPVRDRNKRSFWLSAARSALFNQIVAERLKKADVNQVVDGDALQLAGRGSWFVATTEELAELQRRVNDKELMITAALPGSGEWGTQREALAFEQAAVAAETELQALLVREKVEAARRAMLLYPQQLSWNWWDDVTVEIRFWLPAGSFATSVVRELINTTGDYAHIAE | not soluble
